According to patent publication US20150284465A1 (Chugai, published 2015):
One block for each binder: values may come before it.

Legend:
[1] = biological target: T1, SR344 (N-terminal 1st to 344th amino acids of soluble human IL-6R) (human, UniProt P08887 20-344, limits assumed); test: SPR (Biacore T100), SR344 as analyte, 37 C
T1 construct: also called recombinant soluble IL-6 receptor; soluble human IL-6 receptor
T1 sequence (looked up): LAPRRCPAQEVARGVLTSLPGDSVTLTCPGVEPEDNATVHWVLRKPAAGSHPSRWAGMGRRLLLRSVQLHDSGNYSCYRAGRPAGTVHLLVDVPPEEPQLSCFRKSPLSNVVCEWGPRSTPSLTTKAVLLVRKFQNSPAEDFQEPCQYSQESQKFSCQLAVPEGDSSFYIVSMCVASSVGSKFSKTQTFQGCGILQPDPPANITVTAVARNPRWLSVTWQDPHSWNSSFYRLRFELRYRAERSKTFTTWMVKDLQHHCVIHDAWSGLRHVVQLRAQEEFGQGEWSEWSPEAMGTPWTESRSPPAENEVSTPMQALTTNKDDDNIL

[2] = biological target: T1, SR344 (N-terminal 1st to 344th amino …); test: SPR (Biacore T100), antibody captured on anti-IgG (γ-chain specific) F(ab')2, SR344 as analyte, pH 7.4, 37 C
Protocol: Antigen-antibody reaction kinetics was analyzed using Biacore T100 (GE Healthcare). The SR344-antibody interaction was measured by immobilizing appropriate amounts of anti-IgG (γ-chain specific) F(ab′)2 onto a sensor chip by amine coupling method, binding antibodies of interest onto the chip at pH 7.4, and then flowing IL-6 receptor SR344 adjusted to be various concentrations at pH 7.4 over the chip as an analyte. All measurements were carried out at 37° C. The kinetic parameters, association rate constant kₐ (1/Ms) and dissociation rate constant kd (1/s) were calculated from the sensorgrams obtained by measurement. Then, KD (M) was determined based on the rate constants. The respective parameters were determined using Biacore T100 Evaluation Software (GE Healthcare).

[3] = biological target: T1, SR344 (N-terminal 1st to 344th amino …); test: SPR (Biacore T100), antibody captured on Protein A/G, SR344 as analyte, 37 C
Protocol: The antigen-antibody interaction was measured by immobilizing purified Recomb Protein A/G (Pierce) (hereinafter “Protein A/G”) onto a sensor chip, binding various antibodies onto the chip, and then flowing the antigen over the chip as an analyte. Various concentrations of recombinant soluble IL-6 receptor (SR344) were used as the antigen. The measurement conditions were the same as described in Example 2.
Kinetic analysis was carried out using Biacore-specific data analysis software Biacore T100 Evaluation Software.

[4] = biological target: T1, SR344 (N-terminal 1st to 344th amino …); test: as above; remark: listed apart in the source
Protocol: (§1) This measurement was carried out under the same conditions described in Example 2. The running buffer used was HBS-EP+, and the flow rate was 20 μl/min. Each antibody was prepared so that about 100 RU of the antibody was bound to Protein A/G. SR344 was prepared at 0, 0.065, 0.131, and 0.261 μg/ml using HBS-EP+ and used as an analyte. In the first step of the measurement, the antibody in solution was bound to Protein A/G, and the analyte solution was allowed to interact therewith. After three minutes of interaction, the solution was switched to HBS-EP+, and the dissociation phase was monitored for 10 or 15 minutes. After measurement of the dissociation phase, the sensor chip was regenerated by washing with 10 μl of 10 mM glycine-HCl (pH 1.5). The association, dissociation, and regeneration constitute one analysis cycle. Each antibody was measured according to this cycle.
The sensorgram was kinetically analyzed using the Biacore-specific data analysis software, Biacore T100 Evaluation Software.

[5] = biological target: T1, SR344 (N-terminal 1st to 344th amino …); test: as above; remark: listed apart in the source
[6] = biological target: T1, SR344 (N-terminal 1st to 344th amino …); test: SPR (Biacore T100), Protein A/G capture, SR344 at 0, 0.36 and 1.4 µg/ml, 15 min dissociation, 37 C
Protocol: as §1
The Tm of purified H96/PF1L-IgG1 was determined by the method described in Example 5. The affinity measurement was carried out under essentially the same conditions used in Example 5. Note that the concentration of SR344 was adjusted to 0, 0.36, and 1.4 μg/ml, and the dissociation phase was monitored for 15 minutes.

[7] = biological target: T1, SR344 (N-terminal 1st to 344th amino …); test: as above; remark: listed apart in the source
[8] = biological target: T1, SR344 (N-terminal 1st to 344th amino …); test: cell-based or functional assay
[9] = biological target: T1, SR344 (N-terminal 1st to 344th amino …); test: SPR (Biacore T100), antibody captured on Protein A/G, antigen as analyte, 37 C
Protocol: (§2) The antigen-antibody interaction was measured by immobilizing purified Recomb Protein A/G (Pierce) (hereinafter “Protein A/G”) onto a sensor chip, binding various antibodies onto the chip, and then flowing the antigen as an analyte over the chip. Various concentrations of rhIL-6sR (R&D systems) and recombinant soluble IL-6 receptor (SR344 prepared in Example 1) were used as the antigen. The sugar chain structure of rhIL-6sR produced by baculovirus-infected insect cells is of high-mannose type. On the other hand, the sugar chain structure of SR344 produced by CHO cells is assumed to be of the complex sugar chain type with sialic acid at its end. Since the sugar chain structure of soluble IL-6 receptor in an actual human body is assumed to be of the complex sugar chain type with sialic acid at its end, SR344 is expected to have a structure closer to that of soluble IL-6 receptor in the human body. Thus, a comparison test between rhIL-6sR and SR344 was carried out in this experiment.
(§3) A sensor chip was prepared by immobilizing about 3,000 RU of Protein A/G onto CM5 (Biacore) with the amine coupling method. […] The running buffer used was HBS-EP+, and the flow rate was 20 μl/min. Each antibody was prepared so that about 100 RU of the antibody was bound to Protein A/G. For the analyte, rhIL-6sR was prepared at 0, 0.156, 0.313, and 0.625 μg/ml using HBS-EP+, while SR344 was adjusted to 0, 0.0654, 0.131, and 0.261 μg/ml. […] After three minutes of interaction, the solution was switched with HBS-EP+ (Biacore), and the dissociation phase was monitored for ten minutes. After measurement of the dissociation phase, the sensor chip was regenerated by washing with 10 μl of 10 mM glycine-HCl (pH 1.5). The association, dissociation, and regeneration constituted one analytic cycle. All experiments were carried out at 37° C.

[10] = biological target: T2, recombinant human IL-6R sR (R&D systems) (human, UniProt P08887 20-358); test: as above
T2 construct: Bought soluble receptor; also called rhIL-6sR; rhIL-s6R
T2 sequence (looked up): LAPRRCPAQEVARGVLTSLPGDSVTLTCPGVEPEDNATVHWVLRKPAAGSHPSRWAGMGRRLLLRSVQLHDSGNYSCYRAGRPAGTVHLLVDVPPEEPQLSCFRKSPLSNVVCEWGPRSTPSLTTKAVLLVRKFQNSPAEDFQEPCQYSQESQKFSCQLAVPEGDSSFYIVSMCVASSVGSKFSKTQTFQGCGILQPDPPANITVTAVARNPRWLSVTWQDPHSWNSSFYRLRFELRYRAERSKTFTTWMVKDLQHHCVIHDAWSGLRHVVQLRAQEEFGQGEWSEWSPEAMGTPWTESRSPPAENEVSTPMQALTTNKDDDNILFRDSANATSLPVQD
Protocol: as §2, §3

[11] = biological target: T1, SR344 (N-terminal 1st to 344th amino …); test: as above; remark: listed apart in the source
Protocol: as §3
(§4) The obtained sensorgrams were kinetically analyzed using Biacore T100 Evaluation Software, which is a data analysis software specific for Biacore (Table 3). […] All measurements described hereinafter in the Examples were carried out at 37° C. to kinetically analyze the antigen-antibody reaction using SR344 and protein A/G.

[12] = biological target: T2, recombinant human IL-6R sR (R&D systems); test: as above; remark: listed apart in the source
Protocol: as §3, §4

[13] = biological target: T2, recombinant human IL-6R sR (R&D systems); test: SPR (Biacore T100), antibody captured on Protein A, rhIL-6sR as analyte, 25 C
Protocol: The antigen-antibody interaction was measured by immobilizing 4,400 to 5,000 RU of rec-Protein A (Zymed) immobilized onto a sensor chip by the amine coupling method, binding various antibodies onto the chip, and then flowing the antigen over the chip as an analyte. For the antigen, various concentrations of rhIL-6sR were used. All measurements were carried out at 25° C. The kinetic parameters, association rate constant kₐ (1/Ms) and dissociation rate constant kd (1/s) were calculated from the sensorgrams obtained by measurement. Then, KD (M) was determined based on the rate constants. The respective parameters were determined using Biacore T100 Evaluation Software (Biacore).

B1: Fv3-M73 (antibody, V domains shown)
VH: QVQLQESGPGLVKPSETLSLTCAVSGHSISHDHAWSWVRQPPGEGLEWIGFISYSGITNYNPTLQGRVTISRDNSKNTLYLQMNSLRAEDTAVYYCARSLARTTAMDYWGEGTLVTVSS
VL: DIQMTQSPSSLSASVGDSVTITCQASRDISSHLNWYQQKPGKAPELLIYYGSHLLSGVPSRFSGSGSGTDFTFTISSLEAEDAATYYCGQGNRLPYTFGQGTKVEIER
notes: also called VH4-M73/VL1-kappa
fold higher affinity than TOCILIZUMAB [1]: 3 fold
Kd [2]: 1 nM
koff [2]: 0.00087 s⁻¹
kon [2]: 850000 M⁻¹ s⁻¹

B3: H53/L28 (antibody, IgG1, V domains shown)
VH: QVQLQESGPGLVKPSETLSLTCAVSGYSISDDHAWSWVRQPPGEGLEWIGYISYSGITNYNPSLKGRVTISRDTSKNQFSLKLSSVTAADTAAYYCARSLARTTAMDYWGEGTLVTVSS
VL: DIQMTQSPSSLSASVGDSVTITCQASQDISSYLNWYQQKPGKAPELLIYYGSELHSGVPSRFSGSGSGTDFTFTISSLEAEDAATYYCQQGNSLPYTFGQGTKVEIE
notes: Made from the vectors of the IgG1 antibody WT
Kd [3]: 0.68 nM
koff [3]: 0.00052 s⁻¹
kon [3]: 760000 M⁻¹ s⁻¹
Kd [4]: 0.68 nM
koff [4]: 0.00052 s⁻¹
kon [4]: 760000 M⁻¹ s⁻¹
fold improved affinity against WT [5]: ~6 fold

B5: RDC-23 (antibody, V domains shown)
VH: QVQLQESGPGLVRPSQTLSLTCTVSGYSITSDHAWSWVRQPPGRGLEWIGYISYSGITTYNPSLKSRVTMLRDTSKNQFSLRLSSVTAADTAVYYCARVLARITAMDYWGQGSLVTVSS
VL: DIQMTQSPSSLSASVGDRVTITCRASQDISSYLNWYQQKPGKAPKLLIYYTSRLHSGVPSRFSGSGSGTDFTFTISSLQPEDIATYYCGQGNRLPYTFGQGTKVEIK
notes: also called RDC-5H/RDC-11L
BaF3/gp130 neutralizing activity, 100% inhibitory concentration against WT [8]: ~100 fold
Kd [9]: 0.067 nM
koff [9]: 4.3e-05 s⁻¹
kon [9]: 640000 M⁻¹ s⁻¹
Kd [10]: 0.028 nM
koff [10]: 4.5e-05 s⁻¹
kon [10]: 1.6e+06 M⁻¹ s⁻¹
fold improved affinity against WT [11]: 40 to 60 fold
fold improved affinity against WT [12]: 40 to 60 fold
Kd [4]: 0.067 nM
koff [4]: 4.3e-05 s⁻¹
kon [4]: 640000 M⁻¹ s⁻¹
Kd [13]: 0.025 nM
koff [13]: 3.1e-05 s⁻¹
kon [13]: 1.2e+06 M⁻¹ s⁻¹

Now from value to binder:

fold higher affinity than TOCILIZUMAB [1]: 2 fold
Kd [2]: 1.4 nM
koff [2]: 0.001 s⁻¹
kon [2]: 750000 M⁻¹ s⁻¹
B2: Fv4-M73 (antibody, V domains shown)
VH: QVQLQESGPGLVKPSETLSLTCAVSGHSISHDHAWSWVRQPPGEGLEWIGFISYSGITNYNPSLQGRVTISRDNSKNTLYLQMNSLRAEDTAVYYCARSLARTTAMDYWGEGTLVTVSS
VL: DIQMTQSPSSLSASVGDSVTITCQASTDISSHLNWYQQKPGKAPELLIYYGSHLLSGVPSRFSGSGSGTDFTFTISSLEAEDAATYYCGQGNRLPYTFGQGTKVEIER
notes: also called VH3-M73/VL3-kappa

Kd [6]: 0.031 nM
koff [6]: 4.2e-05 s⁻¹
kon [6]: 1.4e+06 M⁻¹ s⁻¹
Kd [7]: 0.03 nM
koff [7]: 4.4e-05 s⁻¹
kon [7]: 1.5e+06 M⁻¹ s⁻¹
Kd [4]: 0.027 nM
koff [4]: 3.5e-05 s⁻¹
kon [4]: 1.3e+06 M⁻¹ s⁻¹
fold improved affinity against WT [5]: ~150 fold
B4: PF1 antibody (antibody, IgG1, V domains shown)
VH: QVQLQESGPGLVKPSETLSLTCAVSGYSISDDHAWSWVRQPPGEGLEWIGYISYSGITNYNPSLKGRVTISRDTSKNQFSLKLSSVTAADTAAYYCARVLARITAMDYWGEGTLVTVSS
VL: DIQMTQSPSSLSASVGDSVTITCQASQDISSYLNWYQQKPGKAPELLIYYGSELHSGVPSRFSGSGSGTDFTFTISSLEAEDAATYYCGQGNRLPYTFGQGTKVEIE
notes: also called PF1-IgG1; PF1_H/PF1_L
